According to US20140274782A1, “AFFINITY REAGENTS AND METHODS FOR DETECTION, PURIFICATION, AND PROTEOMIC ANALYSIS OF METHYLATED PROTEINS” (The Board of Trustees of the Leland Stanford Junior …, priority 2013, published 2014):

T1: G9a and GLP (Homo sapiens, UniProt Q96KQ7+Q9H9B1)
T1 sequence (Q96KQ7 2-1210 limits assumed): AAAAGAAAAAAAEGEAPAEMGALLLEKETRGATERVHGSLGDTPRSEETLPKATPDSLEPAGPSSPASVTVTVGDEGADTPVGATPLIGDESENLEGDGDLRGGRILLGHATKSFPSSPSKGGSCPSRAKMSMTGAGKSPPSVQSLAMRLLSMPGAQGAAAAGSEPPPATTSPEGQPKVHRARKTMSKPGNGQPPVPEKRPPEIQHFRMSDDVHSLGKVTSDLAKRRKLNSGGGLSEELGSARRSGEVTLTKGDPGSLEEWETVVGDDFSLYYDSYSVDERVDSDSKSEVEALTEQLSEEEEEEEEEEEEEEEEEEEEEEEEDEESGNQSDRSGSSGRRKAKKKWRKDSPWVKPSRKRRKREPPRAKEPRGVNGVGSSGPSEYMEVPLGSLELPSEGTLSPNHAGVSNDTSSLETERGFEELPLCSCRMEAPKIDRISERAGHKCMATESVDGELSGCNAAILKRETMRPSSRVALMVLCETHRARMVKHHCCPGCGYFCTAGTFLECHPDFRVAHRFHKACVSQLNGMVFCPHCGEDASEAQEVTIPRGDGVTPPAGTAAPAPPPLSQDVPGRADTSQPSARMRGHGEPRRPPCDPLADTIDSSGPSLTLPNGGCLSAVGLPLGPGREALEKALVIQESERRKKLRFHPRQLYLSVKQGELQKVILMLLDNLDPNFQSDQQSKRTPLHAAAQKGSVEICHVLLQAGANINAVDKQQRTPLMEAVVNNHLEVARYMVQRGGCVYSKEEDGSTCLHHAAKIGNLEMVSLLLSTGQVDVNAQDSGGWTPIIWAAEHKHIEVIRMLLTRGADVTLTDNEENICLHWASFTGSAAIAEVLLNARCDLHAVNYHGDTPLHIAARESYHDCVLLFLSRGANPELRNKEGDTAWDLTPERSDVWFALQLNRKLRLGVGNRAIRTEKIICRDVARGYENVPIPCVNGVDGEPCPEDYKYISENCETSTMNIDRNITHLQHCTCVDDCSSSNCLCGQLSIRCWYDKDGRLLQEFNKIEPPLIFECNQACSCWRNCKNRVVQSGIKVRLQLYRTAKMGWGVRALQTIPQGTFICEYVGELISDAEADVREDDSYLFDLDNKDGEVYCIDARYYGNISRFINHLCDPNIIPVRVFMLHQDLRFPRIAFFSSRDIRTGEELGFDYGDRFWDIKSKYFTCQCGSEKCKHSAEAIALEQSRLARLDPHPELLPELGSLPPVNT
T1 sequence (Q9H9B1 2-1298 limits assumed): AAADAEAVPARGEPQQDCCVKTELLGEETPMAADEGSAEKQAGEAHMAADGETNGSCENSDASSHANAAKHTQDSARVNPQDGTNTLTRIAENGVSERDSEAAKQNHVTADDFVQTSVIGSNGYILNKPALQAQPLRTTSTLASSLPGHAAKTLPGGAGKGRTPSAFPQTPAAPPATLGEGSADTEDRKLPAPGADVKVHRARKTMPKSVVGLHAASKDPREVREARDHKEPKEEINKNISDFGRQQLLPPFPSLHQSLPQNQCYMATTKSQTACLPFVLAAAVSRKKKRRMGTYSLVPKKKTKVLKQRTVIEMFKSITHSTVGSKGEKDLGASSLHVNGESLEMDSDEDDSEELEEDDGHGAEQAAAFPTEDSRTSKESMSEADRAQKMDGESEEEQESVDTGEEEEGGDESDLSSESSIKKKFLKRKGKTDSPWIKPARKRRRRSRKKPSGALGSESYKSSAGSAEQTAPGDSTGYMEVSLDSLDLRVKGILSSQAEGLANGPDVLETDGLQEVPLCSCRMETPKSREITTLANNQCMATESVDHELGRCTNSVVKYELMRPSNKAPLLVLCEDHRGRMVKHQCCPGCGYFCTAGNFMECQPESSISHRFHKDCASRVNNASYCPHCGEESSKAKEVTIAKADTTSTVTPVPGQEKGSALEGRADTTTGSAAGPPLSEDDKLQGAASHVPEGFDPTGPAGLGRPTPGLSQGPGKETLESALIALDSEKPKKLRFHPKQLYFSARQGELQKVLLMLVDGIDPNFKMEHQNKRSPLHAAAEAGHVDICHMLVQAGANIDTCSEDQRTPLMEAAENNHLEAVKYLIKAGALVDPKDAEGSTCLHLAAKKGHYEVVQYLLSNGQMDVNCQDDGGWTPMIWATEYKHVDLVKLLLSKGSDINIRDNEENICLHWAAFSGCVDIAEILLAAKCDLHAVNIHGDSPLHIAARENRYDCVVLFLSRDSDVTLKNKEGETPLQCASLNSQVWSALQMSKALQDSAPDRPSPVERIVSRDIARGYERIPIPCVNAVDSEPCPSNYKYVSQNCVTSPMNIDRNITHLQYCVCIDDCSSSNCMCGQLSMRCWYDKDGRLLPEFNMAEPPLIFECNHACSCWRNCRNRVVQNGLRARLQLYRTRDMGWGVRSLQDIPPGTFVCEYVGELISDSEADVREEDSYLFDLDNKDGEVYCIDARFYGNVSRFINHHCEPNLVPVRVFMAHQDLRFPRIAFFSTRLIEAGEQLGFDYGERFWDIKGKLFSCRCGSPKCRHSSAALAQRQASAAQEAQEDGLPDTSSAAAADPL

B1: TK1 (protein, UniProt P04183 2-234, looked up)
Thymidine kinase, cytosolic: SCINLPTVLPGSPSKTRGQIQVILGPMFSGKSTELMRRVRRFQIAQYKCLVIKYAKDTRYSSSFCTHDRNTMEALPACLLRDVAQEALGVAVIGIDEGQFFPDIVEFCEAMANAGKTVIVAALDGTFQRKPFGAILNLVPLAESVVKLTAVCMECFREAAYTKRLGTEKEVEVIGGADKYHSVCRLCYFKKASGQPAGPDNKENCPVPGKPGEAVAARKLFAPQQILQCSPAN
B2: TRIM28 (protein, UniProt Q13263 2-835, looked up)
Transcription intermediary …: AASAAAASAAAASAASGSPGPGEGSAGGEKRSTAPSAAASASASAAASSPAGGGAEALELLEHCGVCRERLRPEREPRLLPCLHSACSACLGPAAPAAANSSGDGGAAGDGTVVDCPVCKQQCFSKDIVENYFMRDSGSKAATDAQDANQCCTSCEDNAPATSYCVECSEPLCETCVEAHQRVKYTKDHTVRSTGPAKSRDGERTVYCNVHKHEPLVLFCESCDTLTCRDCQLNAHKDHQYQFLEDAVRNQRKLLASLVKRLGDKHATLQKSTKEVRSSIRQVSDVQKRVQVDVKMAILQIMKELNKRGRVLVNDAQKVTEGQQERLERQHWTMTKIQKHQEHILRFASWALESDNNTALLLSKKLIYFQLHRALKMIVDPVEPHGEMKFQWDLNAWTKSAEAFGKIVAERPGTNSTGPAPMAPPRAPGPLSKQGSGSSQPMEVQEGYGFGSGDDPYSSAEPHVSGVKRSRSGEGEVSGLMRKVPRVSLERLDLDLTADSQPPVFKVFPGSTTEDYNLIVIERGAAAAATGQPGTAPAGTPGAPPLAGMAIVKEEETEAAIGAPPTATEGPETKPVLMALAEGPGAEGPRLASPSGSTSSGLEVVAPEGTSAPGGGPGTLDDSATICRVCQKPGDLVMCNQCEFCFHLDCHLPALQDVPGEEWSCSLCHVLPDLKEEDGSLSLDGADSTGVVAKLSPANQRKCERVLLALFCHEPCRPLHQLATDSTFSLDQPGGTLDLTLIRARLQEKLSPPYSSPQEFAQDVGRMFKQFNKLTEDKADVQSIIGLQRFFETRMNEAFGDTKFSAVLVEPPPMSLPGAGLSSQELSGGPGDGP
B3: TUBA1C (protein, UniProt Q9BQE3 1-449, looked up)
Tubulin alpha-1C chain: MRECISIHVGQAGVQIGNACWELYCLEHGIQPDGQMPSDKTIGGGDDSFNTFFSETGAGKHVPRAVFVDLEPTVIDEVRTGTYRQLFHPEQLITGKEDAANNYARGHYTIGKEIIDLVLDRIRKLADQCTGLQGFLVFHSFGGGTGSGFTSLLMERLSVDYGKKSKLEFSIYPAPQVSTAVVEPYNSILTTHTTLEHSDCAFMVDNEAIYDICRRNLDIERPTYTNLNRLISQIVSSITASLRFDGALNVDLTEFQTNLVPYPRIHFPLATYAPVISAEKAYHEQLTVAEITNACFEPANQMVKCDPRHGKYMACCLLYRGDVVPKDVNAAIATIKTKRTIQFVDWCPTGFKVGINYQPPTVVPGGDLAKVQRAVCMLSNTTAVAEAWARLDHKFDLMYAKRAFVHWYVGEGMEEGEFSEAREDMAALEKDYEEVGADSADGEDEGEEY
B4: CKAP2 (protein, UniProt Q8WWK9 1-683, looked up)
Cytoskeleton-associated …: MSTPAVPQDLQLPPSQRAQSAFKEQRRQKLKEHLLRRKTLFAYKQENEMLSSSRDQRVVTSEDQVQEGTKVLKLKTKMADKENMKRPAESKNNTVVGKHCIPLKPSNELTNSTVVIDTHKPKDSNQTPHLLLTEDDPQSQHMTLSQAFHLKNNSKKKQMTTEKQKQDANMPKKPVLGSYRGQIVQSKINSFRKPLQVKDESSAATKKLSATIPKATKPQPVNTSSVTVKSNRSSNMTATTKFVSTTSQNTQLVRPPIRSHHSNTRDTVKQGISRTSANVTIRKGPHEKELLQSKTALSSVKTSSSQGIIRNKTLSRSIASEVIARPASLSNDKLMEKSEPVDQRRHTAGKAIVDSRSAQPKETSEERKARLSEWKAGKGRVLKRPPNSVVTQHEPAGQNEKPVGSFWTTMAEEDEQRLFTEKVNNTFSECLNLINEGCPKEDILVTLNDLIKNIPDAKKLVKYWICLALIEPITSPIENIIAIYEKAILAGAQPIEEMRHTIVDILTMKSQEKANLGENMEKSCASKEEVKEVSIEDTGVDVDPEKLEMESKLHRNLLFQDCEKEQDNKTKDPTHDVKTPNTETRTSCLIKYNVSTTPYLQSVKKKVQFDGTNSAFKELKFLTPVRRSRRLQEKTSKLPDMLKDHYPCVSSLEQLTELGRETDAFVCRPNAALCRVYYEADTT
B5: NOSIP (protein, UniProt Q9Y314 1-301, looked up)
Nitric oxide …: MTRHGKNCTAGAVYTYHEKKKDTAASGYGTQNIRLSRDAVKDFDCCCLSLQPCHDPVVTPDGYLYEREAILEYILHQKKEIARQMKAYEKQRGTRREEQKELQRAASQDHVRGFLEKESAIVSRPLNPFTAKALSGTSPDDVQPGPSVGPPSKDKDKVLPSFWIPSLTPEAKATKLEKPSRTVTCPMSGKPLRMSDLTPVHFTPLDSSVDRVGLITRSERYVCAVTRDSLSNATPCAVLRPSGAVVTLECVEKLIRKDMVDPVTGDKLTDRDIIVLQRGGTGFAGSGVKLQAEKSRPVMQA

Each molecule was assayed on 3×MBT domain of L3MBTL1 (assay: Triple SILAC pull-down, 3xMBT/3xMBTD355N ratio (cytoplasmic, nuclear and chromatin fractions of 293T cells)). Conditions: SILAC ratio 3xMBT vs 3xMBTD355N pull-down, 293T cells; experiment with UNC0638 in heavy SILAC media; all values in log base 2.
Type: binding, human
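Wherever 3xMBT/D355N UNC Heavy is given: proteins quantified with MaxQuant, requiring at least two unique peptides and quantification in both label directions, normalized to the mean of proteins from a digested loading control.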
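Wherever 3xMBT/D355N UNC Light is given: proteins quantified with MaxQuant, requiring at least two unique peptides and quantification in both label directions, normalized to the mean of proteins from a digested loading control.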
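Wherever Relative to UNC0638 Average is given: mass spectrometry (Q-Exactive) SILAC quantitation, DMSO/UNC0638 ratio computed after subtracting 3×MBTD355N mutant pull-down background, only proteins with at least twofold 3×MBT over mutant signal considered.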
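Wherever Relative to UNC0638 UNC Heavy is given: mass spectrometry (Q-Exactive) SILAC quantitation, DMSO/UNC0638 ratio computed after subtracting 3×MBTD355N mutant pull-down background, only proteins with at least twofold 3×MBT over mutant signal considered.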
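Wherever Relative to UNC0638 UNC Light is given: mass spectrometry (Q-Exactive) SILAC quantitation, DMSO/UNC0638 ratio computed after subtracting 3×MBTD355N mutant pull-down background, only proteins with at least twofold 3×MBT over mutant signal considered.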

Row | Molecule | 3xMBT/D355N UNC Heavy
1 | B1 | 2.89 log base 2
2 | B2 | 1.05 log base 2
3 | B3 | 0.42 log base 2
4 | B4 | −1.81 log base 2
5 | B5 | 1.54 log base 2

Same assay, conditions: SILAC ratio 3xMBT vs 3xMBTD355N pull-down, 293T cells; experiment with UNC0638 in light SILAC media; all values in log base 2

Row | Molecule | 3xMBT/D355N UNC Light
6 | B1 | 2.36 log base 2
7 | B2 | 1.28 log base 2
8 | B3 | 1.45 log base 2
9 | B4 | −1.33 log base 2
10 | B5 | 2.28 log base 2

What follows are molecules tested against T1, G9a and GLP (assay: Triple SILAC pull-down after UNC0638 treatment of 293T cells, DMSO/UNC0638 ratio of protein captured by 3×MBT). Conditions: SILAC ratio DMSO relative to UNC0638, pull-down with 3xMBT; UNC0638 in heavy SILAC media; all values in log base 2.
Type: cell-based
Parameters: cells were treated for 24 hours with UNC0638 at 2.5 μM or DMSO vehicle control; endogenous in cells; host or cells: HEK 293T

Row | Molecule | Relative to UNC0638 UNC Heavy
11 | B1 | 0.63 log base 2
12 | B2 | 0.01 log base 2
13 | B3 | −0.83 log base 2
14 | B4 | −0.12 log base 2
15 | B5 | 0.03 log base 2

Same assay, conditions: SILAC ratio DMSO relative to UNC0638, pull-down with 3xMBT; UNC0638 in light SILAC media; all values in log base 2

Row | Molecule | Relative to UNC0638 UNC Light
16 | B1 | −0.50 log base 2
17 | B2 | 0.10 log base 2
18 | B3 | 0.93 log base 2
19 | B4 | 0.05 log base 2
20 | B5 | −0.11 log base 2

Same assay, conditions: average of UNC Light and UNC Heavy experiments; all values in log base 2

Row | Molecule | Relative to UNC0638 Average
21 | B1 | 0.07 log base 2
22 | B2 | 0.06 log base 2
23 | B3 | 0.05 log base 2
24 | B4 | −0.03 log base 2
25 | B5 | −0.04 log base 2
